From US20170240628A1 (CELLMID, published 2017)
Numbering of substitutions follows the chain as printed.

T1: recombinant murine midkine (muMK) (murine, UniProt P12025 23-140)
T1 construct: also called murine MK; Murine MK
T1 sequence (looked up): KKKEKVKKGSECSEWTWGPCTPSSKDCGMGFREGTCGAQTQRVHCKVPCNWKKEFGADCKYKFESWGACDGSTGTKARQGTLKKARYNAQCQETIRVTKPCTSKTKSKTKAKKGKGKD

T2: recombinant human midkine (huMK) (human, UniProt P21741 21-143)
T2 construct: also called human MK; Human MK
T2 sequence (looked up): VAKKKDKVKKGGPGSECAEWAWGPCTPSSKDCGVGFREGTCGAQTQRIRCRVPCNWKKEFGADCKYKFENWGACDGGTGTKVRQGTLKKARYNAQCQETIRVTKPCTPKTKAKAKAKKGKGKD

B1: IP14-H5L2 (antibody, V domains shown)
VH: QVQLVQSGGGLVQPGGSLRLSCAASGQSFSSYWMNWVRQAPGQGLEWIGMIHPSDSETILNQKFKDKATLTVDISKNTAYLQMNSLRAEDTAVYYCSSWSAKRGDFWGQGTLVTVSS
VL: EIVLTQSPATLSLSPGERATLSCRASESISNNLHWYQQKPGQAPRLLIKYASQSISGIPARFSGSGPGTDFTLTISSVEPEDFAVYYCQQSNSWPLTFGGGTKLEIKR
notes: also called Hv5 Lv2
B2: IP14-H2L2 (antibody, V domains shown)
VH: QVQLVQSGAEVKKPGASVKVSCKASGQSFSSYWMNWVRQAPGQGLEWIGMIHPSDSETILNQKFKDKATLTVDISTSTAYMELSSLRSEDTAVYYCSSWSAKRGDFWGQGTLVTVSS
VL: B1 VL
notes: also called Hv2 Lv2
B3: IP14-H5L4 (antibody, V domains shown)
VH: B1 VH
VL: EIVLTQSPDFQSVTPKEKVNITCRASESISNNLHWYQQKPHQSPKLLIYYASQSISGVPSRFSGSGSGTDFNLTINSVEAEDAATYYCQQSNSWPLTFGGGTKLEIKR
notes: also called Hv5 Lv4
B4: IP14-H5L6 (antibody, V domains shown)
VH: B1 VH
VL: EIVLTQSPSTLSASVGDRVNITCRASESISNNLHWYQQKPHKAPKLLIYYASQSISGVPSRFSGSGSGTEFNLTISSVQPDDFATYYCQQSNSWPLTFGQGTKVEIKR
notes: also called Hv5 Lv6
B5: IP14-H2L8 (antibody, V domains shown)
VH: B2 VH
VL: B1 VL with E1D, G41H, K49Y, I58V, P67S, G100Q, L104V
notes: also called hIP14-H2L8; Hv2 Lv8
B6: IP14-H5L7 (antibody, V domains shown)
VH: B1 VH
VL: B1 VL with E1D, T20N, G41H, K49Y, I58V, P67S, T72N, G100Q, L104V
notes: also called Hv5 Lv7
B7: IP14-H1L1 (antibody, V domains shown)
VH: B2 VH with A16H, L86P
VL: B1 VL with T20N, G41H, T72N
notes: also called Hv1 Lv1
B8: IP14-H6L2 (antibody, V domains shown)
VH: B1 VH with Q13K, G16H, Q43K, T71S, S75A, T78S
VL: B1 VL
notes: also called hIP14-H6L2; Hv6 Lv2
B9: IP14-H2L1 (antibody, V domains shown)
VH: B2 VH
VL: B1 VL with T20N, G41H, T72N
notes: also called Hv2 Lv1
B10: IP14-H2L7 (antibody, V domains shown)
VH: B2 VH
VL: B1 VL with E1D, T20N, G41H, K49Y, I58V, P67S, T72N, G100Q, L104V
notes: also called Hv2 Lv7
B11: IP14-H1L2 (antibody, V domains shown)
VH: B2 VH with A16H, L86P
VL: B1 VL
notes: also called Hv1 Lv2
B12: IP14-H1L8 (antibody, V domains shown)
VH: B2 VH with A16H, L86P
VL: B1 VL with E1D, G41H, K49Y, I58V, P67S, G100Q, L104V
notes: also called hIP14-H1L8; Hv1 Lv8
B13: IP14-H1L7 (antibody, V domains shown)
VH: B2 VH with A16H, L86P
VL: B1 VL with E1D, T20N, G41H, K49Y, I58V, P67S, T72N, G100Q, L104V
notes: also called Hv1 Lv7
B14: IP14-H6L1 (antibody, V domains shown)
VH: B1 VH with Q13K, G16H, Q43K, T71S, S75A, T78S
VL: B1 VL with T20N, G41H, T72N
notes: also called Hv6 Lv1
B15: IP14-H6L6 (antibody, V domains shown)
VH: B1 VH with Q13K, G16H, Q43K, T71S, S75A, T78S
VL: B4 VL
notes: also called Hv6 Lv6
B16: IP14-H6L4 (antibody, V domains shown)
VH: B1 VH with Q13K, G16H, Q43K, T71S, S75A, T78S
VL: B3 VL
notes: also called Hv6 Lv4
B17: IP14-H5L1 (antibody, V domains shown)
VH: B1 VH
VL: B1 VL with T20N, G41H, T72N
notes: also called Hv5 Lv1
B18: IP14-H1L3 (antibody, V domains shown)
VH: B2 VH with A16H, L86P
VL: B1 VL with E1D, K49Y, V78L
notes: also called hIP14-H1L3; Hv1 Lv3
B19: IP14-H5L3 (antibody, V domains shown)
VH: B1 VH
VL: B1 VL with E1D, K49Y, V78L
notes: also called hIP14-H5L3; Hv5 Lv3
B20: IP14-H2L3 (antibody, V domains shown)
VH: B2 VH
VL: B1 VL with E1D, K49Y, V78L
notes: also called hIP14-H2L3; Hv2 Lv3
B21: IP14-H3L2 (antibody, V domains shown)
VH: B2 VH with I48M, A68V, L70M, V72R, I74T, A79V, S97A, S98R
VL: B1 VL
notes: also called Hv3 Lv2
B22: IP14-H3L1 (antibody, V domains shown)
VH: B2 VH with I48M, A68V, L70M, V72R, I74T, A79V, S97A, S98R
VL: B1 VL with T20N, G41H, T72N
notes: also called Hv3 Lv1
B23: IP14-H2L6 (antibody, V domains shown)
VH: B2 VH
VL: B4 VL
notes: also called Hv2 Lv6
B24: IP14-H2L4 (antibody, V domains shown)
VH: B2 VH
VL: B3 VL
notes: also called Hv2 Lv4
B25: IP14-H1L6 (antibody, V domains shown)
VH: B2 VH with A16H, L86P
VL: B4 VL
notes: also called Hv1 Lv6
B26: IP14-H1L4 (antibody, V domains shown)
VH: B2 VH with A16H, L86P
VL: B3 VL
notes: also called Hv1 Lv4
B27: IP14 Hv0 Lv2 (antibody, V domains shown)
VH: QVQLQQPGAELVRPGHSVKLSCKASGQSFSSYWMNWVRQRPGQGLEWIGMIHPSDSETILNQKFKDKATLTVDISSNTAYMQLSSPTSEDSAVYFCSSWSAKRGDFWGQGTTLTVSS
VL: B1 VL
B28: IP14 Hv0 Lv1 (antibody, V domains shown)
VH: B27 VH
VL: B1 VL with T20N, G41H, T72N
B29: IP14 Hv0 Lv7 (antibody, V domains shown)
VH: B27 VH
VL: B1 VL with E1D, T20N, G41H, K49Y, I58V, P67S, T72N, G100Q, L104V
B30: IP14 Hv0 Lv3 (antibody, V domains shown)
VH: B27 VH
VL: B1 VL with E1D, K49Y, V78L
B31: IP14 Hv0 Lv8 (antibody, V domains shown)
VH: B27 VH
VL: B1 VL with E1D, G41H, K49Y, I58V, P67S, G100Q, L104V
B32: IP14 Hv0 Lv4 (antibody, V domains shown)
VH: B27 VH
VL: B3 VL
B33: IP14 Hv0 Lv6 (antibody, V domains shown)
VH: B27 VH
VL: B4 VL

Molecular target: T1, recombinant murine midkine (muMK)
Experiment: ELISA, plate coated with muMK
Procedure: (§1) The binding specificity and affinity of the humanised anti-MK antibodies to recombinant human MK (huMK) and murine MK (muMK) was assessed by ELISA. ELISA plates (Nunc Immuno MaxiSorp 96 well flat-bottom were coated with 100 uL of 2 ug/mL of either huMK or muMK in 2% BSA/PBS (overnight at room temperature). After washing, blocking (1 h at 37° C.), and washing again, the humanised anti-MK and chimeric antibodies described in Example 1 were analysed for binding to huMK or muMK at concentrations ranging between 3 μg/ml and 0.00004 μg/ml in 2% BSA/PBS (1 h at 37° C.). After washing, the binding of antibody was detected with goat anti-mouse IgG (Fab specific)-HRP conjugate (Sigma, Cat. No. A9917) and SigmaFast OPD substrate (Sigma, Cat. No. P9187). The reaction was stopped with 3 M HCl, absorbance read at 490 nm on a Dynex Technologies MRX TC II plate reader and the binding curves plotted. Binding affinity data for the humanised anti-MK antibodies to huMK and muMK are presented in Table 6 and Table 7 respectively, and in FIG. 3.

EC50 [nM]	Binder
0.054	B1
0.087	B2
0.051	B3
0.044	B4
0.069	B5
0.059	B6
0.044	B7
0.072	B8
0.09	B9
0.071	B10
0.051	B11
0.089	B12
0.081	B13
0.032	B14
0.048	B15
0.051	B16
0.052	B17
0.089	B18
0.05	B19
0.081	B20
0.1	B21
0.12	B22
0.073	B23
0.078	B24
0.087	B25
0.081	B26

Molecular target: T2, recombinant human midkine (huMK)
Experiment: ELISA, plate coated with huMK
Procedure: as §1

EC50 [nM]	Binder
0.069	B1
0.1	B2
0.095	B27
0.069	B3
0.073	B4
0.093	B28
0.056	B5
0.067	B6
0.092	B29
0.09	B30
0.056	B7
0.041	B8
0.093	B9
0.08	B31
0.058	B10
0.065	B11
0.05	B12

EC50 [nM]	Binder
0.043	B13
0.097	B14
0.088	B15
0.073	B16
0.062	B17
0.063	B18
0.068	B19
0.068	B20
0.082	B21
0.091	B22
0.108	B32
0.054	B23
0.132	B33
0.053	B24
0.053	B25
0.05	B26
